B1: BCL2L13 (parent)
chain: QSLDQEILLKVKTEIEEELKSLDK
B2: RAD51 (parent)
chain: RFLRMLLRLADEFGVAVVITNQVV

Variants of: B1
Experiment: protein stability index of a GFP-peptide fusion (GPS, HEK-293T) (PSI 1-6); higher = more stable
Conditions: c terminus: a fixed tail appended
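Note: lentivirally expressed fusions sorted by FACS into six bins by GFP to DsRed ratio, PSI derived from sequencing read proportions per bin multiplied by bin number.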

**Q.** With QSLDQEILLKVKTEIEEELKSLDC as the variant, how does the protein stability index read?
**A.** The protein stability index was 4.53.

**Q.** For QSLDQEILNKVKTEIEEELKSLDK, which protein stability index is on record?
**A.** Its protein stability index is 5.48.

**Q.** For QSLDQEILQKVKTEIEEELKSLDK, which protein stability index is on record?
**A.** Its protein stability index is 5.37.

**Q.** With QSLDQEILLKVMTEIEEELKSLDK as the variant, how does the protein stability index read?
**A.** The protein stability index was 1.81.

**Q.** With QSLDQEILLKVPTEIEEELKSLDK as the variant, how does the protein stability index read?
**A.** Its protein stability index is 5.38.

**Q.** For QSLQQEILLKVKTEIEEELKSLDK, which protein stability index is on record?
**A.** The protein stability index was 4.66.

**Q.** Which protein stability index does the source give for QSLCQEILLKVKTEIEEELKSLDK here?
**A.** The protein stability index was 4.

**Q.** With QSLVQEILLKVKTEIEEELKSLDK as the variant, how does the protein stability index read?
**A.** The protein stability index was 2.66.

**Q.** With QSLDQYILLKVKTEIEEELKSLDK as the variant, how does the protein stability index read?
**A.** Its protein stability index is 3.47.

**Q.** For QSLDQIILLKVKTEIEEELKSLDK, which protein stability index is on record?
**A.** Its protein stability index is 3.27.

**Q.** For QSLDQAILLKVKTEIEEELKSLDK, which protein stability index is on record?
**A.** Its protein stability index is 3.94.

**Q.** For QSLDQSILLKVKTEIEEELKSLDK, which protein stability index is on record?
**A.** The protein stability index was 4.79.

**Q.** Which protein stability index does the source give for QSQDQEILLKVKTEIEEELKSLDK here?
**A.** The protein stability index was 5.41.

**Q.** With QSHDQEILLKVKTEIEEELKSLDK as the variant, how does the protein stability index read?
**A.** Its protein stability index is 5.54.

**Q.** For QSLDQEILLKVKTEIEEELKSHDK, which protein stability index is on record?
**A.** Its protein stability index is 5.47.

**Q.** Which protein stability index does the source give for QSLDQEILLKVKTEIEEWLKSLDK here?
**A.** Its protein stability index is 2.8.

**Q.** Which protein stability index does the source give for QSLDQEILLKVKTEIEEKLKSLDK here?
**A.** The protein stability index was 3.74.

**Q.** Which protein stability index does the source give for QSLDQEILLKVKTEIEEVLKSLDK here?
**A.** Its protein stability index is 3.69.

**Q.** For QSLDQEILLKVKTEIEEELGSLDK, which protein stability index is on record?
**A.** Its protein stability index is 5.03.

**Q.** Which protein stability index does the source give for QSLDREILLKVKTEIEEELKSLDK here?
**A.** The protein stability index was 4.14.

**Q.** For QSLDMEILLKVKTEIEEELKSLDK, which protein stability index is on record?
**A.** The protein stability index was 4.05.

**Q.** With QSLDDEILLKVKTEIEEELKSLDK as the variant, how does the protein stability index read?
**A.** The protein stability index was 5.28.

**Q.** For QSLDFEILLKVKTEIEEELKSLDK, which protein stability index is on record?
**A.** The protein stability index was 2.83.

**Q.** Which protein stability index does the source give for QSLDQEILLKVKTNIEEELKSLDK here?
**A.** The protein stability index was 4.58.

**Q.** Which protein stability index does the source give for QSLDQEILLKVKTSIEEELKSLDK here?
**A.** The protein stability index was 4.99.

**Q.** With QSLDQEILLKVKTAIEEELKSLDK as the variant, how does the protein stability index read?
**A.** Its protein stability index is 3.4.

**Q.** For QSLDQEILLKVKTYIEEELKSLDK, which protein stability index is on record?
**A.** Its protein stability index is 3.16.

**Q.** Which protein stability index does the source give for QSLDQEILLKVKTWIEEELKSLDK here?
**A.** Its protein stability index is 2.47.

**Q.** With QSLDQEILLKVKTRIEEELKSLDK as the variant, how does the protein stability index read?
**A.** Its protein stability index is 3.85.

**Q.** For QSLDQEILLKVKTEIEEEVKSLDK, which protein stability index is on record?
**A.** Its protein stability index is 5.63.

**Q.** For QSLDQEILLKVKTEIEEEGKSLDK, which protein stability index is on record?
**A.** Its protein stability index is 5.03.

**Q.** For QSLDQEILLKVKTEIEEEDKSLDK, which protein stability index is on record?
**A.** Its protein stability index is 5.77.

**Q.** Which protein stability index does the source give for QSLDQEILLKVKTEIEEEMKSLDK here?
**A.** Its protein stability index is 5.4.

**Q.** With QSLDQEILLKVKTEIEEETKSLDK as the variant, how does the protein stability index read?
**A.** Its protein stability index is 5.48.

**Q.** With QELDQEILLKVKTEIEEELKSLDK as the variant, how does the protein stability index read?
**A.** Its protein stability index is 5.52.

**Q.** For QYLDQEILLKVKTEIEEELKSLDK, which protein stability index is on record?
**A.** Its protein stability index is 4.

**Q.** For QGLDQEILLKVKTEIEEELKSLDK, which protein stability index is on record?
**A.** The protein stability index was 3.38.

**Q.** With QSLDQEILLKVKTEPEEELKSLDK as the variant, how does the protein stability index read?
**A.** Its protein stability index is 5.92.

**Q.** Which protein stability index does the source give for QSLDQEILLLVKTEIEEELKSLDK here?
**A.** Its protein stability index is 3.19.

**Q.** Which protein stability index does the source give for QSLDQEIFLKVKTEIEEELKSLDK here?
**A.** Its protein stability index is 5.14.

**Q.** For QSLDQEIKLKVKTEIEEELKSLDK, which protein stability index is on record?
**A.** The protein stability index was 4.75.

**Q.** Which protein stability index does the source give for QSLDQEIQLKVKTEIEEELKSLDK here?
**A.** Its protein stability index is 5.42.

**Q.** With QSLDQEIDLKVKTEIEEELKSLDK as the variant, how does the protein stability index read?
**A.** The protein stability index was 5.83.

**Q.** For QSLDQEFLLKVKTEIEEELKSLDK, which protein stability index is on record?
**A.** Its protein stability index is 4.64.

**Q.** Which protein stability index does the source give for QSLDQEMLLKVKTEIEEELKSLDK here?
**A.** Its protein stability index is 5.3.

**Q.** With QSLDQENLLKVKTEIEEELKSLDK as the variant, how does the protein stability index read?
**A.** Its protein stability index is 5.33.

**Q.** With QSLDQEKLLKVKTEIEEELKSLDK as the variant, how does the protein stability index read?
**A.** Its protein stability index is 5.51.

**Q.** With QSLDQEILLKVKWEIEEELKSLDK as the variant, how does the protein stability index read?
**A.** The protein stability index was 3.48.

**Q.** With QSLDQEILLKVKTEIEEELKSLGK as the variant, how does the protein stability index read?
**A.** Its protein stability index is 4.41.

**Q.** Which protein stability index does the source give for QSLDQEILLKVKTEIEEELKSLCK here?
**A.** The protein stability index was 3.42.

**Q.** For QSLDQEILLKVKTEIEEELKSLRK, which protein stability index is on record?
**A.** Its protein stability index is 3.78.

**Q.** Which protein stability index does the source give for QSLDQEILLKVKTEITEELKSLDK here?
**A.** Its protein stability index is 4.72.

**Q.** With QSLDQEILLKVKTEIREELKSLDK as the variant, how does the protein stability index read?
**A.** The protein stability index was 4.79.

**Q.** For QSLDQEILLKVKTEIHEELKSLDK, which protein stability index is on record?
**A.** The protein stability index was 4.4.

**Q.** With HSLDQEILLKVKTEIEEELKSLDK as the variant, how does the protein stability index read?
**A.** Its protein stability index is 4.92.

**Q.** Which protein stability index does the source give for VSLDQEILLKVKTEIEEELKSLDK here?
**A.** The protein stability index was 3.97.

**Q.** For QSLDQEILLKVKTEIEEELKMLDK, which protein stability index is on record?
**A.** The protein stability index was 4.67.

**Q.** With QSLDQEILLKHKTEIEEELKSLDK as the variant, how does the protein stability index read?
**A.** The protein stability index was 4.56.

Variants of: B2
Experiment: as above
Conditions: c terminus: a fixed tail appended

**Q.** Which protein stability index does the source give for RFLRMLLRLADEFGVAYVITNQVV here?
**A.** The protein stability index was 2.83.

**Q.** For RFLRMLLRLADEFGVAWVITNQVV, which protein stability index is on record?
**A.** Its protein stability index is 2.41.

**Q.** Which protein stability index does the source give for RFLRMLLRLADEFGVATVITNQVV here?
**A.** Its protein stability index is 2.11.

**Q.** Which protein stability index does the source give for RFLRMLLRLADEFGVAVVIRNQVV here?
**A.** Its protein stability index is 2.34.

**Q.** Which protein stability index does the source give for RFLRMLLRLADEFGVAVVIKNQVV here?
**A.** The protein stability index was 3.31.

**Q.** With RFLRMLLRLADEFGVAVVIMNQVV as the variant, how does the protein stability index read?
**A.** The protein stability index was 1.44.

**Q.** Which protein stability index does the source give for RFLRMLLRLADEFGVAVVISNQVV here?
**A.** Its protein stability index is 3.06.

**Q.** With RFLRMLLRLADEFGVAVVIDNQVV as the variant, how does the protein stability index read?
**A.** The protein stability index was 2.52.

**Q.** For RFLRMLLRLADEFGVAVVICNQVV, which protein stability index is on record?
**A.** Its protein stability index is 1.8.

**Q.** Which protein stability index does the source give for RFLRMLLRLADEFGVAVVIINQVV here?
**A.** The protein stability index was 2.75.

**Q.** For RFLRMLLRLADEFGVAVVIGNQVV, which protein stability index is on record?
**A.** The protein stability index was 1.98.

**Q.** With RFLRMLLRLADEFGVAVVIENQVV as the variant, how does the protein stability index read?
**A.** The protein stability index was 1.53.

**Q.** Which protein stability index does the source give for RFLRMLLRLADEFGVAVVIFNQVV here?
**A.** Its protein stability index is 1.3.

**Q.** With RFLRMLLRLADEFGVAVVINNQVV as the variant, how does the protein stability index read?
**A.** Its protein stability index is 1.21.

**Q.** With RFLRMLLRLADEFGVAVVIPNQVV as the variant, how does the protein stability index read?
**A.** The protein stability index was 2.72.

**Q.** Which protein stability index does the source give for RFLRMLLRLADEFGVAVVIANQVV here?
**A.** Its protein stability index is 2.68.

**Q.** For RFLRMLLRLADEFGVAVVIYNQVV, which protein stability index is on record?
**A.** The protein stability index was 1.97.

**Q.** Which protein stability index does the source give for RFLRMLLRLADEFGVAVVIVNQVV here?
**A.** The protein stability index was 2.82.

**Q.** With RFLRMLLRLADEFGVAVVIWNQVV as the variant, how does the protein stability index read?
**A.** The protein stability index was 3.05.

**Q.** Which protein stability index does the source give for RFLRMLLRLADEFGVAVVIQNQVV here?
**A.** The protein stability index was 2.26.

**Q.** For RFLRMLLRLADEFGVAVVILNQVV, which protein stability index is on record?
**A.** The protein stability index was 2.3.

**Q.** With RFLRMLLRLADEFGVAVVITNQSV as the variant, how does the protein stability index read?
**A.** Its protein stability index is 2.56.

**Q.** For RFLRMLLRLADEFGVAVVITNQDV, which protein stability index is on record?
**A.** Its protein stability index is 2.64.

**Q.** For RFLRMLLRLADEFGVAVVITNQHV, which protein stability index is on record?
**A.** Its protein stability index is 2.07.

**Q.** Which protein stability index does the source give for RFLRMLLRLADEFGVAVVITNQAV here?
**A.** The protein stability index was 2.66.

**Q.** With RFLRMLLRLADEFGVAVVITNQPV as the variant, how does the protein stability index read?
**A.** The protein stability index was 2.23.

**Q.** Which protein stability index does the source give for RFLRMLLRLADEFGVAVVITNQFV here?
**A.** The protein stability index was 3.02.

**Q.** For RFLRMLLRLADEFGVAVVITNQQV, which protein stability index is on record?
**A.** Its protein stability index is 1.98.

**Q.** With RFLRMLLRLADEFGVAVVITNQTV as the variant, how does the protein stability index read?
**A.** Its protein stability index is 1.51.

**Q.** For RFLRMLLRLADEFGVAVVITNQRV, which protein stability index is on record?
**A.** The protein stability index was 1.09.

**Q.** Which protein stability index does the source give for RFLRMLLRLADEFGVAVVITNQLV here?
**A.** The protein stability index was 2.38.

**Q.** With RFLRMLLRLADEFGVAVVITNQKV as the variant, how does the protein stability index read?
**A.** Its protein stability index is 2.73.

**Q.** For RFLRMLLRLADEFGVAVVITNQCV, which protein stability index is on record?
**A.** The protein stability index was 2.69.

**Q.** Which protein stability index does the source give for RFLRMLLRLADEFGVAVVITNQIV here?
**A.** The protein stability index was 3.7.

**Q.** With RFLRMLLRLADEFGVAVVITNQMV as the variant, how does the protein stability index read?
**A.** The protein stability index was 2.37.

**Q.** For RFLRMLLRLADEFGVAVVITNQWV, which protein stability index is on record?
**A.** Its protein stability index is 1.98.
